Measurements reported in the supplement of paper PMC9233669.
Variants at the floor of the assay were thinned out.

What was measured:
[1] = system: biotinyl-Val-oxazolone; test: self-aminoacylation, catalytic enhancement (BVO) (fold over background); higher = more active; k-Seq, kA / k0A0; sequences stand for … in GGGAAUGGAUCCACAUCUACGAAUUC…UUCACUGCAGACUUGACGAAGCUG
Summary of the method: (§1)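 Working in 50 μL HEPES/NaCl/KCl/MgCl2/CaCl2 buffer with 5% acetonitrile at pH 6.9–7.0, mutagenized RNA pools (0.43 μM; 21-nt variable region) were reacted with 2–1250 μM of each biotinyl-aminoacyl-oxazolone for 90 minutes at room temperature. Streptavidin capture followed, with quantification by triplicate qPCR and Illumina sequencing. Catalytic enhancement is reported as median kA over the uncatalyzed rate, the low-activity peak of a bimodal Gaussian fit to the data.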

[2] = system: biotinyl-Met-oxazolone; test: self-aminoacylation, catalytic enhancement (BMO) (fold over background); higher = more active; k-Seq, kA / k0A0; sequences stand for … in GGGAAUGGAUCCACAUCUACGAAUUC…UUCACUGCAGACUUGACGAAGCUG
Summary of the method: as §1

[3] = system: biotinyl-Trp-oxazolone; test: self-aminoacylation, catalytic enhancement (BWO) (fold over background); higher = more active; k-Seq, kA / k0A0; sequences stand for … in GGGAAUGGAUCCACAUCUACGAAUUC…UUCACUGCAGACUUGACGAAGCUG
Summary of the method: as §1

[4] = system: biotinyl-Leu-oxazolone; test: self-aminoacylation, catalytic enhancement (BLO) (fold over background); higher = more active; k-Seq, kA / k0A0; sequences stand for … in GGGAAUGGAUCCACAUCUACGAAUUC…UUCACUGCAGACUUGACGAAGCUG
Summary of the method: as §1

[5] = system: biotinyl-Ile-oxazolone; test: self-aminoacylation, catalytic enhancement (BIO) (fold over background); higher = more active; k-Seq, kA / k0A0; sequences stand for … in GGGAAUGGAUCCACAUCUACGAAUUC…UUCACUGCAGACUUGACGAAGCUG
Summary of the method: as §1

[6] = system: biotinyl-Phe-oxazolone; test: self-aminoacylation, catalytic enhancement (BFO) (fold over background); higher = more active; k-Seq, kA / k0A0; sequences stand for … in GGGAAUGGAUCCACAUCUACGAAUUC…UUCACUGCAGACUUGACGAAGCUG
Summary of the method: as §1

| Sequence | self-aminoacylation [1] | self-aminoacylation [2] | self-aminoacylation [3] | self-aminoacylation [4] | self-aminoacylation [5] | self-aminoacylation [6] |
| --- | --- | --- | --- | --- | --- | --- |
| AUUCGCCGAGGUCAUCGGGUG [Fam2.2 aminoacylation ribozyme variant] | 7.83 | 12.4 | 9.29 | 13.7 | 6.76 | 80.2 |
| AUUCGCCUAGGUCAUCGGGGG [Fam2.2 aminoacylation ribozyme variant] | 3.72 | 5.82 | 3.54 | 7.51 | 4.36 | 30 |
| AUUCGCCUAGGUCAUCGGGUC [Fam2.2 aminoacylation ribozyme variant] | 1.91 | 1.62 | 1.76 | 1.88 | 1.58 | 6.94 |
| AUUCGCCUAGGUCAUUGGGUG [Fam2.2 aminoacylation ribozyme variant] | 3.23 | 4.27 | 4.29 | 5.43 | 3.14 | 23.2 |
| AUUCGCCUAGGUGAUCGGGUG [Fam2.2 aminoacylation ribozyme variant] | 2.48 | 2.35 | 3.31 | 3.46 | 2.56 | 20.6 |
| AUUCGCCUAGGUUAUCGGGUG [Fam2.2 aminoacylation ribozyme variant] | 4.33 | 5.77 | 5.88 | 6.76 | 3.77 | 42.5 |
| AUUCGCCUAUGUCAUCGGGUG [Fam2.2 aminoacylation ribozyme variant] | 3.16 | 5.1 | 4.65 | 6.54 | 3.35 | 30.7 |
| AUUCGCCUCGGUCAUCGGGUG [Fam2.2 aminoacylation ribozyme variant] | 6.21 | 8.96 | 8.94 | 10.9 | 5.14 | 56.3 |
| AUUCUCAUAGGUCAUCGGGUG [Fam2.2 aminoacylation ribozyme variant] | 6.14 | 10.8 | 10.6 | 13.5 | 5.71 | 82.5 |
| AUUCUCCGAGGUCAUCGGGUG [Fam2.2 aminoacylation ribozyme variant] | 10.6 | 16.7 | 14.7 | 22 | 9.69 | 141 |
| AUUCUCCUAAGUCAUCGGGUG [Fam2.2 aminoacylation ribozyme variant] | 9.67 | 16 | 16 | 21.3 | 10.3 | 154 |
| AUUCUCCUAGGACAUCGGGUG [Fam2.2 aminoacylation ribozyme variant] | 3.62 | 4.55 | 3.73 | 5.06 | 2.81 | 27.8 |
| AUUCUCCUAGGUCAGCGGGUG [Fam2.2 aminoacylation ribozyme variant] | 3.99 | 6.21 | 8.04 | 8.81 | 4.22 | 43.1 |
| AUUCUCCUAGGUCAUCGGGAG [Fam2.2 aminoacylation ribozyme variant] | 1.33 | 1.81 | 1.71 | 1.77 | 1.49 | 5.17 |
| AUUCUCCUAGGUCAUGGGGUG [Fam2.2 aminoacylation ribozyme variant] | 5.64 | 9.56 | 8.92 | 12.5 | 5.81 | 78.8 |
| AUUCUCCUAGGUCAUUGGGUG [Fam2.2 aminoacylation ribozyme variant] | 3.87 | 5.76 | 6.02 | 7.5 | 3.96 | 44 |
| AUUCUCCUAGUUCAUCGGGUG [Fam2.2 aminoacylation ribozyme variant] | 3.46 | 4.59 | 5.28 | 5.88 | 3.84 | 32.7 |
| AUUCUCGUAGGUCAUCGGGUG [Fam2.2 aminoacylation ribozyme variant] | 7.51 | 11.3 | 9.21 | 12.2 | 6.47 | 77.6 |
| AUUGACCAAGGUCAUCGGGUG [Fam2.2 aminoacylation ribozyme variant] | 3.9 | 6.04 | 6.06 | 7.01 | 4.36 | 45.5 |
| AUUGACCUAGGCCAUCGGGUG [Fam2.2 aminoacylation ribozyme variant] | 4.27 | 4.78 | 6.22 | 5.7 | 3.65 | 39.3 |
| AUUGACCUAGGUCAUCGAGUG [Fam2.2 aminoacylation ribozyme variant] | 5 | 9.94 | 6.09 | 13.7 | 6.03 | 27.9 |
| AUUGACCUAGGUCAUCGCGUG [Fam2.2 aminoacylation ribozyme variant] | 3.69 | 4.19 | 5.47 | 5.69 | 3.24 | 25 |

| Sequence | self-aminoacylation [1] | self-aminoacylation [2] | self-aminoacylation [3] | self-aminoacylation [4] | self-aminoacylation [5] | self-aminoacylation [6] |
| --- | --- | --- | --- | --- | --- | --- |
| AUUGACCUAGGUCAUCGGCUG [Fam2.2 aminoacylation ribozyme variant] | 1.7 | 1.58 | 1.95 | 1.76 | 1.6 | 1.19 |
| AUUGACCUAGGUCAUCGGGUG [Fam2.2 aminoacylation ribozyme variant] | 17.4 | 43.8 | 31.1 | 58.8 | 20.6 | 337 |
| AUUGACCUAGGUCAUUGGGUG [Fam2.2 aminoacylation ribozyme variant] | 2.33 | 2.54 | 3.59 | 2.94 | 2.82 | 14.7 |
| AUUGACCUAGGUCCUCGGGUG [Fam2.2 aminoacylation ribozyme variant] | 3.24 | 4.64 | 5.43 | 5.76 | 4.32 | 29 |
| AUUGACCUUGGUCAUCGGGUG [Fam2.2 aminoacylation ribozyme variant] | 3.36 | 5.19 | 5.82 | 5.49 | 3.38 | 32.8 |
| AUUGACGUAGGUCAUCGGGUG [Fam2.2 aminoacylation ribozyme variant] | 3.22 | 4.18 | 4.06 | 3.27 | 2.26 | 30.5 |
| AUUGACUUAGGUCAUCGGGUG [Fam2.2 aminoacylation ribozyme variant] | 3.95 | 5.25 | 5.77 | 6.27 | 3.47 | 39.1 |
| AUUGAGCUAGGUCAUCGGGUG [Fam2.2 aminoacylation ribozyme variant] | 3.55 | 3.78 | 5.57 | 5.61 | 3.41 | 26.6 |
| AUUGCCCAGGUCAUCGAGUGA [Fam2.1 aminoacylation ribozyme variant] | 3.16 | 5.51 | 5.7 | 4.81 | 2.66 | 18.4 |
| AUUGCCCUGAUCAUCGAGUGA [Fam2.1 aminoacylation ribozyme variant] | 4.01 | 7.51 | 8.98 | 7.17 | 3.73 | 26.6 |
| AUUGCCCUGCUCAUCGAGUGA [Fam2.1 aminoacylation ribozyme variant] | 1.61 | 1.86 | 1.04 | 1.91 | 1.22 | 5.55 |
| AUUGCCCUGGUCAUCAAGUGA [Fam2.1 aminoacylation ribozyme variant] | 1.65 | 2.36 | 2.85 | 2.05 | 1.39 | 5.6 |
| AUUGCCCUGGUCAUCGAAUGA [Fam2.1 aminoacylation ribozyme variant] | 1.29 | 1.29 | 0.773 | 1.34 | 1.05 | 0.641 |
| AUUGCCCUGGUCAUCGAGUCA [Fam2.1 aminoacylation ribozyme variant] | 0.894 | 0.817 | 0.652 | 0.777 | 0.957 | 0.963 |
| AUUGCCCUGGUCAUCGCGUGA [Fam2.1 aminoacylation ribozyme variant] | 12 | 23.1 | 23.6 | 26.3 | 9.62 | 157 |
| AUUGCCCUGGUCAUCGGGUGA [Fam2.1 aminoacylation ribozyme variant] | 30 | 58.1 | 73.4 | 67.3 | 23.1 | 317 |
| AUUGCCCUGGUCAUGGAGUGA [Fam2.1 aminoacylation ribozyme variant] | 2.58 | 3.81 | 4.3 | 4.11 | 2.9 | 23.7 |
| AUUGCCCUGGUCUUCGAGUGA [Fam2.1 aminoacylation ribozyme variant] | 3.96 | 6.57 | 8.03 | 6.8 | 3.44 | 47.1 |
| AUUGCCCUGGUGAUCGAGUGA [Fam2.1 aminoacylation ribozyme variant] | 2.82 | 5.63 | 6 | 5.06 | 2.77 | 36.1 |
| AUUGCGCUGGUCAUCGAGUGA [Fam2.1 aminoacylation ribozyme variant] | 2.62 | 4.28 | 5.11 | 4.57 | 2.47 | 25.1 |
| AUUGGCCUGGUCAUCGAGUGA [Fam2.1 aminoacylation ribozyme variant] | 4.31 | 6.17 | 9.15 | 7.35 | 4.1 | 30.7 |
